Earlier results on one substance are cited in patent publication US7514409B2, “VLA-4 antagonists” (Merck & Co., Inc., priority 2004, dated 2009).

The series addresses T1, VLA-4 (Homo sapiens, UniProt P13612).
T1 construct: host or cells: circulating VLA-4-bearing leukocytes of trial subjects (in vivo)
To be noted: early clinical trials.

With “natalizumab: humanized monoclonal antibody against α4”, the “lymphocytosis (a surrogate marker for blockade of VLA-4 function)” value is “observed” and the receptor occupancy is reported as greater than 80%.
